What was measured:
Assay in all cases: cell-based or functional assay
HLA-A2 (human) = target: HLA-A2 (human)
HLA-B and -C = target: HLA-B and -C
HLA-A, -B and -C = target: HLA-A, -B and -C

**Q.** How did the γ-IFN Elispot, ICD-specific CD8+ T cell line on Fibro/ICD stimulators pre-incubated with antibody (50 µg/mL) (Elispot spots per well) (HLA-A2 (human)) turn out when monoclonal antibody BB7.2 was run?
**A.** Its γ-IFN Elispot, ICD-specific CD8+ T cell line on Fibro/ICD stimulators pre-incubated with antibody (50 µg/mL) (Elispot spots per well) is 213.

**Q.** What about the γ-IFN Elispot, clone 17D5 on Fibro/ICD stimulators, antibody at 25 µg/mL (Elispot spots per well) (HLA-A2 (human)) of the same substance?
**A.** The γ-IFN Elispot, clone 17D5 on Fibro/ICD stimulators, antibody at 25 µg/mL (Elispot spots per well) was 165.

**Q.** And the γ-IFN Elispot, clone 17D5 on Fibros-H2N stimulators, antibody at 25 µg/mL (Elispot spots per well) (HLA-A2 (human))?
**A.** The γ-IFN Elispot, clone 17D5 on Fibros-H2N stimulators, antibody at 25 µg/mL (Elispot spots per well) was 98.

**Q.** monoclonal antibody BB123.2 was tested. Which γ-IFN Elispot, ICD-specific CD8+ T cell line on Fibro/ICD stimulators pre-incubated with antibody (50 µg/mL) (Elispot spots per well) (HLA-B and -C) did it give?
**A.** The γ-IFN Elispot, ICD-specific CD8+ T cell line on Fibro/ICD stimulators pre-incubated with antibody (50 µg/mL) (Elispot spots per well) was 5.

**Q.** What about the γ-IFN Elispot, clone 17D5 on Fibro/ICD stimulators, antibody at 25 µg/mL (Elispot spots per well) (HLA-B and -C) of the same substance?
**A.** Its γ-IFN Elispot, clone 17D5 on Fibro/ICD stimulators, antibody at 25 µg/mL (Elispot spots per well) is 1.

**Q.** What about the γ-IFN Elispot, clone 17D5 on Fibros-H2N stimulators, antibody at 25 µg/mL (Elispot spots per well) (HLA-B and -C) of the same substance?
**A.** Its γ-IFN Elispot, clone 17D5 on Fibros-H2N stimulators, antibody at 25 µg/mL (Elispot spots per well) is 0.

**Q.** Which γ-IFN Elispot, ICD-specific CD8+ T cell line on Fibro/ICD stimulators pre-incubated with antibody (50 µg/mL) (Elispot spots per well) (HLA-A, -B and -C) does the source give for monoclonal antibody W6/32 here?
**A.** The γ-IFN Elispot, ICD-specific CD8+ T cell line on Fibro/ICD stimulators pre-incubated with antibody (50 µg/mL) (Elispot spots per well) was 4.

**Q.** And the γ-IFN Elispot, clone 17D5 on Fibro/ICD stimulators, antibody at 25 µg/mL (Elispot spots per well) (HLA-A, -B and -C)?
**A.** Its γ-IFN Elispot, clone 17D5 on Fibro/ICD stimulators, antibody at 25 µg/mL (Elispot spots per well) is 3.

**Q.** What about the γ-IFN Elispot, clone 17D5 on Fibros-H2N stimulators, antibody at 25 µg/mL (Elispot spots per well) (HLA-A, -B and -C) of the same substance?
**A.** Its γ-IFN Elispot, clone 17D5 on Fibros-H2N stimulators, antibody at 25 µg/mL (Elispot spots per well) is 0.

Reference: US20020039573A1
